# Results reported in publication PMC11387628.
# Key:
# GFP-WIPI2b S68A (human) = assay: co-IP; GFP-Trap of GFP-WIPI2b WT or mutants from lysates of transfected HEK293A or HEK293A WIPI2 KO cells (full medium or 2 h EBSS), 2 h at 4 °C; washed in TNTE wash buffer (50 mM Tris pH 7.5, 300 mM NaCl, 5 mM EDTA, 0.1% Triton-X100); endogenous ULK1, ATG13 and ATG16L1 detected by western blot
# GFP-WIPI2b S68D (human) = assay: as above
substance,measurement,setting,value
endogenous ATG16L1 (from UniProt Q676U5 1-607) (natural protein),percent reduction of binding compared to WIPI2b WT,GFP-WIPI2b S68A (human),30%
same,percent reduction of binding compared to WIPI2b WT,GFP-WIPI2b S68D (human),> 60%
